63 sequences from PMC4434323 can be followed below.

Data set [1] deals with T1, fkh-9 (K03C7.2) (Caenorhabditis elegans) (UniProt Q21187).
T1 sequence: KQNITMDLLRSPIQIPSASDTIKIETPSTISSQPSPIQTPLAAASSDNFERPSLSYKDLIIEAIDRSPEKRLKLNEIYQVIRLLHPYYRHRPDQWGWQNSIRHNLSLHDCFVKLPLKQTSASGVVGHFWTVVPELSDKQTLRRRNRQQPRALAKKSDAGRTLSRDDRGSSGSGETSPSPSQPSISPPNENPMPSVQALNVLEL

Data set [2] concerns the target T2, end-3 (F58E10.5) (Caenorhabditis elegans) (UniProt Q9XUW7).
T2 sequence: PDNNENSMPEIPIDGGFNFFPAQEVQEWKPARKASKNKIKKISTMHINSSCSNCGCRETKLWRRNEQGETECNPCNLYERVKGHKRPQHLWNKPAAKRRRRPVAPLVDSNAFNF

In data set [3] the target is T3, atf-6 (F45E6.2) (Caenorhabditis elegans) (UniProt Q20435).
T3 sequence: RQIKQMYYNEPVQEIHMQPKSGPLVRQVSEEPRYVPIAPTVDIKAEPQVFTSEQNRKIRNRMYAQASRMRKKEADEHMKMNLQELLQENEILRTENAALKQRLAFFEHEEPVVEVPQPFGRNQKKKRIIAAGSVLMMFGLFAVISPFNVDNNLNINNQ

Data set [4] has as its target T4, efl-2 (Y48C3A.17) (Caenorhabditis elegans) (UniProt A5HWA8).
T4 sequence: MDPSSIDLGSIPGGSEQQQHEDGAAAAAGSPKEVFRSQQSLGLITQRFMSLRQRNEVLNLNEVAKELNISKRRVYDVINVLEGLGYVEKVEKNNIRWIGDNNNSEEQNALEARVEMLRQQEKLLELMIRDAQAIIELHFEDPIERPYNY

Data set [5] has as its target T5, end-1 (F58E10.2) (Caenorhabditis elegans) (UniProt G5EDN4).
T5 sequence: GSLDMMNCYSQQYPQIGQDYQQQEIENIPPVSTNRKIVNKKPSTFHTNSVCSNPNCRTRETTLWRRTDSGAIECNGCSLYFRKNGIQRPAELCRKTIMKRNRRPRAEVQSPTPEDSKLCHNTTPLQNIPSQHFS

Data set [6] deals with T6, elt-6 (F52C12.5) (Caenorhabditis elegans) (UniProt G5EGN3).
T6 sequence: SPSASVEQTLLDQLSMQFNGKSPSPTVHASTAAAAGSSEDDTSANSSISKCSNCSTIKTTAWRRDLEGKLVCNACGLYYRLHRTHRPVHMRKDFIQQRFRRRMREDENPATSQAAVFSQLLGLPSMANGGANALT

For data set [7], the target named is T7, mab-3 (Y53C12B.5) (Caenorhabditis elegans) (UniProt O18214).
T7 sequence: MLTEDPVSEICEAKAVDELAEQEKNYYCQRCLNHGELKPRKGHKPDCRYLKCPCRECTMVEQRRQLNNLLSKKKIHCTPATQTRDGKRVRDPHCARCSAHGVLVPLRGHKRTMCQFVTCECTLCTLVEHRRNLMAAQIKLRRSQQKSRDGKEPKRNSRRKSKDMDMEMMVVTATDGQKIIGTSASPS

Data set [8] deals with T8, T22H9.4 (T22H9.4) (Caenorhabditis elegans) (UniProt Q9TXN8).
T8 sequence: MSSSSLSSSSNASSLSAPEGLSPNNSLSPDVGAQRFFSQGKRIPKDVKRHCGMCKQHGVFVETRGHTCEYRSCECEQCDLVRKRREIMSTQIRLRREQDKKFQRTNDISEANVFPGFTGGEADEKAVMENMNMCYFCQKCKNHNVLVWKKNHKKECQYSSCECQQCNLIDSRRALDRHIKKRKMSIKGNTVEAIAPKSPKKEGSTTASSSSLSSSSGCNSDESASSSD

Data set [9] concerns T9, C34D1.1 (C34D1.1) (Caenorhabditis elegans).
T9 sequence: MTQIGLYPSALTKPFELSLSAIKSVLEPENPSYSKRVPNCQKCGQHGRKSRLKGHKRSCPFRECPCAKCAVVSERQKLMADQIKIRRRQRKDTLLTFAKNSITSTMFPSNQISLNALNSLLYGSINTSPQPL

“AAAAACAA (double strand) [8-mer AAAAACAA]”: in [1], the binding signal (PBM E-score (-0.5 to 0.5)) worked out at 0.49.

Turning to “AAAACAAC (double strand) [8-mer AAAACAAC]”, the binding signal (PBM E-score (-0.5 to 0.5)) in [1] was determined as 0.491.

In data set [1], “AACAACAA (double strand) [8-mer AACAACAA]” registered a binding signal (PBM E-score (-0.5 to 0.5)) of 0.487.

As for “AAGATAAG (double strand) [8-mer AAGATAAG]”, the binding signal (PBM E-score (-0.5 to 0.5)) in [2] stood at 0.493.

“AATAACAA (double strand) [8-mer AATAACAA]”: in data set [1], the binding signal (PBM E-score (-0.5 to 0.5)) was determined as 0.494.

The sequence “ACCACGTA (double strand) [8-mer ACCACGTA]” had a binding signal (PBM E-score (-0.5 to 0.5)) in data set [3] of 0.457.

“ACCCGCGC (double strand) [8-mer ACCCGCGC]”: the binding signal (PBM E-score (-0.5 to 0.5)) in [4] amounted to 0.486.

“ACGCGCGC (double strand) [8-mer ACGCGCGC]” had a binding signal (PBM E-score (-0.5 to 0.5)) in data set [4] of 0.49.

In data set [3], “ACGTCAGA (double strand) [8-mer ACGTCAGA]” displayed a binding signal (PBM E-score (-0.5 to 0.5)) of 0.476.

Turning to “ACGTGGCC (double strand) [8-mer ACGTGGCC]”, the binding signal (PBM E-score (-0.5 to 0.5)) in data set [3] worked out at 0.471.

Regarding “AGAGATAA (double strand) [8-mer AGAGATAA]”, the binding signal (PBM E-score (-0.5 to 0.5)) in data set [2] came to 0.492.

In turn, “AGATAACA (double strand) [8-mer AGATAACA]” displayed a binding signal (PBM E-score (-0.5 to 0.5)) in [2] of 0.488.

For “AGATAACG (double strand) [8-mer AGATAACG]”, in data set [2], the binding signal (PBM E-score (-0.5 to 0.5)) is 0.49.

Take “AGATAAGA (double strand) [8-mer AGATAAGA]”: the figures for the binding signal (PBM E-score (-0.5 to 0.5)) in [5] and in data set [2] were 0.484 and 0.496, respectively.

In turn, “AGATAAGC (double strand) [8-mer AGATAAGC]” came in with a binding signal (PBM E-score (-0.5 to 0.5)) in data set [2] of 0.493.

In the case of “AGATAAGG (double strand) [8-mer AGATAAGG]”, the binding signal (PBM E-score (-0.5 to 0.5)) came to 0.484 in [5] and 0.496 in data set [2].

Regarding “AGCGCGCC (double strand) [8-mer AGCGCGCC]”, the binding signal (PBM E-score (-0.5 to 0.5)) in [4] is 0.488.

As for “AGGCGCGC (double strand) [8-mer AGGCGCGC]”, the binding signal (PBM E-score (-0.5 to 0.5)) in [4] was 0.487.

With “AGTGATAA (double strand) [8-mer AGTGATAA]”, the binding signal (PBM E-score (-0.5 to 0.5)) in data set [6] was found to be 0.495.

Consider “ATCTAATC (double strand) [8-mer ATCTAATC]”, for which, in data set [5], the binding signal (PBM E-score (-0.5 to 0.5)) was 0.487.

Take “ATCTTATC (double strand) [8-mer ATCTTATC]”: the results for the binding signal (PBM E-score (-0.5 to 0.5)) in data set [5] and in data set [2] were 0.495 and 0.497, respectively.

Take “ATGCGCGC (double strand) [8-mer ATGCGCGC]”: the binding signal (PBM E-score (-0.5 to 0.5)) in data set [4] came to 0.485.

As for “CAAAACAA (double strand) [8-mer CAAAACAA]”, the binding signal (PBM E-score (-0.5 to 0.5)) in data set [1] is 0.494.

With “CAATAACA (double strand) [8-mer CAATAACA]”, the binding signal (PBM E-score (-0.5 to 0.5)) in [1] amounted to 0.488.

“CAGATAAG (double strand) [8-mer CAGATAAG]” showed a binding signal (PBM E-score (-0.5 to 0.5)) in [2] of 0.491.

The sequence “CATAACAA (double strand) [8-mer CATAACAA]” had a binding signal (PBM E-score (-0.5 to 0.5)) in [1] of 0.486.

In turn, “CCGATAAG (double strand) [8-mer CCGATAAG]” displayed a binding signal (PBM E-score (-0.5 to 0.5)) in data set [5] of 0.486.

For the sequence “CCGATATC (double strand) [8-mer CCGATATC]”, the binding signal (PBM E-score (-0.5 to 0.5)) in data set [5] was found to be 0.487.

In [5], “CCTTATCG (double strand) [8-mer CCTTATCG]” came in with a binding signal (PBM E-score (-0.5 to 0.5)) of 0.486.

In the case of “CGATAACG (double strand) [8-mer CGATAACG]”, in data set [5], the binding signal (PBM E-score (-0.5 to 0.5)) worked out at 0.483.

As for “CGATAAGA (double strand) [8-mer CGATAAGA]”, the binding signal (PBM E-score (-0.5 to 0.5)) in data set [5] turned out to be 0.487.

In data set [5], “CGATATCG (double strand) [8-mer CGATATCG]” registered a binding signal (PBM E-score (-0.5 to 0.5)) of 0.496.

Turning to “CGCAACAA (double strand) [8-mer CGCAACAA]”, in data set [7], the binding signal (PBM E-score (-0.5 to 0.5)) stood at 0.487.

“CGCGCGCA (double strand) [8-mer CGCGCGCA]” returned a binding signal (PBM E-score (-0.5 to 0.5)) in data set [4] of 0.491.

For the sequence “CGCGCGCC (double strand) [8-mer CGCGCGCC]”, the binding signal (PBM E-score (-0.5 to 0.5)) in [4] was 0.488.

Turning to “CTTATCAC (double strand) [8-mer CTTATCAC]”, in data set [6], the binding signal (PBM E-score (-0.5 to 0.5)) is 0.496.

In turn, “CTTATCTA (double strand) [8-mer CTTATCTA]” came in with a binding signal (PBM E-score (-0.5 to 0.5)) in [2] of 0.493.

Sequence “CTTATCTC (double strand) [8-mer CTTATCTC]” had a binding signal (PBM E-score (-0.5 to 0.5)) in [2] of 0.496.

“GAAAACAA (double strand) [8-mer GAAAACAA]” displayed a binding signal (PBM E-score (-0.5 to 0.5)) in data set [1] of 0.489.

In turn, “GAGATAAC (double strand) [8-mer GAGATAAC]” displayed a binding signal (PBM E-score (-0.5 to 0.5)) in data set [2] of 0.487.

“GAGCGCGC (double strand) [8-mer GAGCGCGC]” yielded a binding signal (PBM E-score (-0.5 to 0.5)) in data set [4] of 0.486.

As for “GATAAGAA (double strand) [8-mer GATAAGAA]”, the binding signal (PBM E-score (-0.5 to 0.5)) in data set [2] is 0.488.

“GATATCGA (double strand) [8-mer GATATCGA]” registered a binding signal (PBM E-score (-0.5 to 0.5)) in data set [5] of 0.484.

In data set [5], “GATATCGC (double strand) [8-mer GATATCGC]” displayed a binding signal (PBM E-score (-0.5 to 0.5)) of 0.487.

“GATGTTGC (double strand) [8-mer GATGTTGC]” showed a binding signal (PBM E-score (-0.5 to 0.5)) in [7] of 0.495.

In the case of “GCAACATA (double strand) [8-mer GCAACATA]”, the binding signal (PBM E-score (-0.5 to 0.5)) in data set [7] is 0.493.

As for “GCGCGCAC (double strand) [8-mer GCGCGCAC]”, in [4], the binding signal (PBM E-score (-0.5 to 0.5)) is 0.487.

As for “GCGCGCCA (double strand) [8-mer GCGCGCCA]”, the binding signal (PBM E-score (-0.5 to 0.5)) in [4] is 0.49.

The sequence “GCGCGCGA (double strand) [8-mer GCGCGCGA]” gave a binding signal (PBM E-score (-0.5 to 0.5)) in data set [4] of 0.485.

Turning to “GCTTATCA (double strand) [8-mer GCTTATCA]”, the binding signal (PBM E-score (-0.5 to 0.5)) in data set [6] is 0.493.

Regarding “GGAGATAA (double strand) [8-mer GGAGATAA]”, the binding signal (PBM E-score (-0.5 to 0.5)) in data set [2] was determined as 0.49.

In [6], “GGTGATAA (double strand) [8-mer GGTGATAA]” came in with a binding signal (PBM E-score (-0.5 to 0.5)) of 0.494.

For “GTGATAAA (double strand) [8-mer GTGATAAA]”, the binding signal (PBM E-score (-0.5 to 0.5)) in data set [6] was determined as 0.491.

As for “GTGATAAC (double strand) [8-mer GTGATAAC]”, the binding signal (PBM E-score (-0.5 to 0.5)) in data set [6] is 0.492.

On to “GTTGCAAC (double strand) [8-mer GTTGCAAC]”, for which the binding signal (PBM E-score (-0.5 to 0.5)) in data set [7] was found to be 0.479; in data set [8], 0.489.

In turn, “TAAAAACA (double strand) [8-mer TAAAAACA]” showed a binding signal (PBM E-score (-0.5 to 0.5)) in [1] of 0.485.

“TATCGATA (double strand) [8-mer TATCGATA]” returned a binding signal (PBM E-score (-0.5 to 0.5)) in data set [5] of 0.49.

In turn, “TCAAAACA (double strand) [8-mer TCAAAACA]” had a binding signal (PBM E-score (-0.5 to 0.5)) in [1] of 0.491.

The sequence “TCATAACA (double strand) [8-mer TCATAACA]” displayed a binding signal (PBM E-score (-0.5 to 0.5)) in [1] of 0.485.

For “TCGCAACA (double strand) [8-mer TCGCAACA]”, in [7], the binding signal (PBM E-score (-0.5 to 0.5)) stood at 0.499.

As to “TCTTATCA (double strand) [8-mer TCTTATCA]”, the binding signal (PBM E-score (-0.5 to 0.5)) was 0.491 in [2] and 0.495 in [6].

In [7], “TGGCAACA (double strand) [8-mer TGGCAACA]” registered a binding signal (PBM E-score (-0.5 to 0.5)) of 0.481.

As for “TGTTGCAA (double strand) [8-mer TGTTGCAA]”, the values for the binding signal (PBM E-score (-0.5 to 0.5)) in data set [9], in data set [7] and in [8] were 0.469, 0.497 and 0.499, respectively.
